In the Human Domainome abundance scans (Beltran et al. 2025):
± gives the uncertainty stated by the source.

B1: 3'-5' exoribonuclease 1, residues 65 to 114; numbered along this chain, Q8IV48 (parent)
chain: VYKEIAITNGCINRMSKEELRAKLSEFKLETRGVKDVLKKRLKNYYKKQK

Variants of: B1
Experiment: abundance fitness (aPCA) (normalised: wild type 0, dead -1); higher = more abundant; growth selection in yeast, the domain comes from the species named
Details: Homo sapiens

VYKEIAITNGTINRMSKEELRAKLSEFKLETRGVKDVLKKRLKNYYKKQK [C11T] and VYKEIAITNGGINRMSKEELRAKLSEFKLETRGVKDVLKKRLKNYYKKQK [C11G] are within error of each other in abundance fitness: 0.005 ± 0.044 for the first, -0.058 ± 0.035 for the second.

First: VYKEIAITNGWINRMSKEELRAKLSEFKLETRGVKDVLKKRLKNYYKKQK [C11W]
Second: VYKEIAITNGQINRMSKEELRAKLSEFKLETRGVKDVLKKRLKNYYKKQK [C11Q]
The abundance fitness of the first is lower: -0.147 ± 0.053 for the first, 0.046 ± 0.054 for the second.

VYKEIAITNGRINRMSKEELRAKLSEFKLETRGVKDVLKKRLKNYYKKQK [C11R] and VYKEIAITNGIINRMSKEELRAKLSEFKLETRGVKDVLKKRLKNYYKKQK [C11I] are within error of each other in abundance fitness: -0.074 ± 0.037 for the first, 0.007 ± 0.05 for the second.

Going from VYKEIAITNGEINRMSKEELRAKLSEFKLETRGVKDVLKKRLKNYYKKQK [C11E] to VYKEIAITNGPINRMSKEELRAKLSEFKLETRGVKDVLKKRLKNYYKKQK [C11P], the abundance fitness falls from 0.071 ± 0.046 to -0.278 ± 0.047.

Compared with VYKEIAITNGMINRMSKEELRAKLSEFKLETRGVKDVLKKRLKNYYKKQK [C11M], VYKEIAITNGNINRMSKEELRAKLSEFKLETRGVKDVLKKRLKNYYKKQK [C11N] is lower in abundance fitness: 0.057 ± 0.046 for the first, -0.04 ± 0.05 for the second.

VYKEIAITNGHINRMSKEELRAKLSEFKLETRGVKDVLKKRLKNYYKKQK [C11H] and VYKEIAITNGSINRMSKEELRAKLSEFKLETRGVKDVLKKRLKNYYKKQK [C11S] are within error of each other in abundance fitness: -0.048 ± 0.053 for the first, 0.012 ± 0.037 for the second.

Going from VYKEIAITNGAINRMSKEELRAKLSEFKLETRGVKDVLKKRLKNYYKKQK [C11A] to VYKEIAITNGYINRMSKEELRAKLSEFKLETRGVKDVLKKRLKNYYKKQK [C11Y], the abundance fitness falls from 0.046 ± 0.038 to -0.052 ± 0.037.

VYKEIAITNGKINRMSKEELRAKLSEFKLETRGVKDVLKKRLKNYYKKQK [C11K] and VYKEIAITNGVINRMSKEELRAKLSEFKLETRGVKDVLKKRLKNYYKKQK [C11V] are within error of each other in abundance fitness: -0.039 ± 0.049 for the first, 0.01 ± 0.034 for the second.

First: VYKEIAITNGLINRMSKEELRAKLSEFKLETRGVKDVLKKRLKNYYKKQK [C11L]
Second: VYKEIAITNGDINRMSKEELRAKLSEFKLETRGVKDVLKKRLKNYYKKQK [C11D]
The abundance fitness of the first is lower: -0.053 ± 0.037 for the first, 0.067 ± 0.048 for the second.

VYKEIAITNGCYNRMSKEELRAKLSEFKLETRGVKDVLKKRLKNYYKKQK [I12Y] and VYKEIAITNGCSNRMSKEELRAKLSEFKLETRGVKDVLKKRLKNYYKKQK [I12S] are within error of each other in abundance fitness: -0.699 ± 0.06 for the first, -0.769 ± 0.04 for the second.

Going from VYKEIAITNGCANRMSKEELRAKLSEFKLETRGVKDVLKKRLKNYYKKQK [I12A] to VYKEIAITNGCVNRMSKEELRAKLSEFKLETRGVKDVLKKRLKNYYKKQK [I12V], the abundance fitness rises from -0.873 ± 0.052 to -0.152 ± 0.039.

Compared with VYKEIAITNGCCNRMSKEELRAKLSEFKLETRGVKDVLKKRLKNYYKKQK [I12C], VYKEIAITNGCDNRMSKEELRAKLSEFKLETRGVKDVLKKRLKNYYKKQK [I12D] is lower in abundance fitness: -0.721 ± 0.056 for the first, -0.961 ± 0.088 for the second.

VYKEIAITNGCQNRMSKEELRAKLSEFKLETRGVKDVLKKRLKNYYKKQK [I12Q] and VYKEIAITNGCGNRMSKEELRAKLSEFKLETRGVKDVLKKRLKNYYKKQK [I12G] are within error of each other in abundance fitness: -0.899 ± 0.066 for the first, -0.877 ± 0.047 for the second.

VYKEIAITNGCFNRMSKEELRAKLSEFKLETRGVKDVLKKRLKNYYKKQK [I12F] and VYKEIAITNGCPNRMSKEELRAKLSEFKLETRGVKDVLKKRLKNYYKKQK [I12P] are within error of each other in abundance fitness: -0.693 ± 0.048 for the first, -0.716 ± 0.048 for the second.

Compared with VYKEIAITNGCTNRMSKEELRAKLSEFKLETRGVKDVLKKRLKNYYKKQK [I12T], VYKEIAITNGCRNRMSKEELRAKLSEFKLETRGVKDVLKKRLKNYYKKQK [I12R] is lower in abundance fitness: -0.457 ± 0.046 for the first, -0.738 ± 0.042 for the second.

VYKEIAITNGCKNRMSKEELRAKLSEFKLETRGVKDVLKKRLKNYYKKQK [I12K] and VYKEIAITNGCENRMSKEELRAKLSEFKLETRGVKDVLKKRLKNYYKKQK [I12E] are within error of each other in abundance fitness: -0.741 ± 0.068 for the first, -0.818 ± 0.073 for the second.

VYKEIAITNGCWNRMSKEELRAKLSEFKLETRGVKDVLKKRLKNYYKKQK [I12W] and VYKEIAITNGCLNRMSKEELRAKLSEFKLETRGVKDVLKKRLKNYYKKQK [I12L] are within error of each other in abundance fitness: -0.435 ± 0.043 for the first, -0.389 ± 0.034 for the second.

Compared with VYKEIAITNYCINRMSKEELRAKLSEFKLETRGVKDVLKKRLKNYYKKQK [G10Y], VYKEIAITNGCINRMFKEELRAKLSEFKLETRGVKDVLKKRLKNYYKKQK [S16F] is lower in abundance fitness: -0.238 ± 0.048 for the first, -0.701 ± 0.043 for the second.

Compared with VYKEIAITNGCINRMGKEELRAKLSEFKLETRGVKDVLKKRLKNYYKKQK [S16G], VYKEIAITNGCINRMTKEELRAKLSEFKLETRGVKDVLKKRLKNYYKKQK [S16T] is higher in abundance fitness: -0.425 ± 0.078 for the first, -0.01 ± 0.059 for the second.

First: VYKEIAITNGCINRMIKEELRAKLSEFKLETRGVKDVLKKRLKNYYKKQK [S16I]
Second: VYKEIAITNGCINRMAKEELRAKLSEFKLETRGVKDVLKKRLKNYYKKQK [S16A]
The abundance fitness of the first is lower: -0.828 ± 0.078 for the first, -0.445 ± 0.082 for the second.

VYKEIAITNGCINRMLKEELRAKLSEFKLETRGVKDVLKKRLKNYYKKQK [S16L] and VYKEIAITNGCINRMEKEELRAKLSEFKLETRGVKDVLKKRLKNYYKKQK [S16E] are within error of each other in abundance fitness: -0.838 ± 0.069 for the first, -0.746 ± 0.28 for the second.

VYKEIAITNGCINRMPKEELRAKLSEFKLETRGVKDVLKKRLKNYYKKQK [S16P] and VYKEIAITNGCINRMDKEELRAKLSEFKLETRGVKDVLKKRLKNYYKKQK [S16D] are within error of each other in abundance fitness: -0.264 ± 0.064 for the first, -0.336 ± 0.093 for the second.

VYKEIAITNGCINRMMKEELRAKLSEFKLETRGVKDVLKKRLKNYYKKQK [S16M] and VYKEIAITNGCINRMVKEELRAKLSEFKLETRGVKDVLKKRLKNYYKKQK [S16V] are within error of each other in abundance fitness: -1.08 ± 0.26 for the first, -0.753 ± 0.081 for the second.

First: VYKEIAITNGCINRMQKEELRAKLSEFKLETRGVKDVLKKRLKNYYKKQK [S16Q]
Second: VYKEIAITNGCINRMRKEELRAKLSEFKLETRGVKDVLKKRLKNYYKKQK [S16R]
The abundance fitness of the first is lower: -0.54 ± 0.11 for the first, -0.097 ± 0.061 for the second.

Compared with VYKEIAITNGCINRMYKEELRAKLSEFKLETRGVKDVLKKRLKNYYKKQK [S16Y], VYKEIAITNGCINRMWKEELRAKLSEFKLETRGVKDVLKKRLKNYYKKQK [S16W] is lower in abundance fitness: -0.461 ± 0.054 for the first, -1.19 ± 0.29 for the second.

VYKEIAITNGCINRMNKEELRAKLSEFKLETRGVKDVLKKRLKNYYKKQK [S16N] and VYKEIAITNGCINRMKKEELRAKLSEFKLETRGVKDVLKKRLKNYYKKQK [S16K] are within error of each other in abundance fitness: -0.041 ± 0.078 for the first, -0.026 ± 0.12 for the second.
